Measurements from publication PMC11869522, “Competitive displacement of lipoprotein lipase from heparan sulfate is orchestrated by a disordered acidic cluster in GPIHBP1” (Journal of Lipid Research, 2025).

Test system: bLPL
Assay: PCSK3 cleavage of LPL (SDS-PAGE densitometry)
Assay type: biochemical, bovine
Details: 20 μM bLPL, 4 units PCSK3, 2 μM ANGPTL4, no GPIHBP1; 25°C, pH 7.0; 110 min without ANGPTL4
Protocol: To determine if charge-variants of GPIHBP1 confer distinct resistance to ANGPTL4-facilitated cleavage of LPL after Arg^324 by PCSK3 ([33]), we incubated purified bLPL (20 μM) with PCSK3 (4 units) for 0–240 min, either alone or in the presence of ANGPTL4 (2 μM) and/or GPIHBP1 (25 μM) at 25°C in 10 mM 2-(N-morpholino) ethane sulfonic acid (MES), 150 mM NaCl, 1 mM CaCl2, pH 7.0. We tested four different GPIHBP1 variants: GPIHBP1^1–131, GPIHBP1^Cluster1-neutral, GPIHBP1^Cluster2-neutral, and GPIHBP1^34–131 (LU domain only). PCSK3 cleavage was stopped by boiling in SDS-PAGE sample buffer (reduced and alkylated) and the degree of cleavage was assessed by SDS-PAGE using 12% Bis-Tris SDS-PAGE gels followed by densitometric scanning of the corresponding Coomassie blue–stained SDS-polyacrylamide gels.
Secretion of LPL by adipocytes is modulated in an autocrine manner by ANGPTL4. […] In the presence of endogenous ANGPTL4, a significant fraction of LPL was cleaved by PCSK3 in the trans-Golgi compartment. […] The presence of GPIHBP1 dramatically delayed PCSK3 cleavage of LPL ([33]). To assess the role of the acidic tail in GPIHBP1 on this delay, we incubated 20 μM bLPL with 4 units of PCSK3 either alone or in the presence of 2 μM ANGPTL4. We observed that the presence of sub-stoichiometric amounts of ANGPTL4 reduced the half-life of intact bLPL from 110 min to less than 5 min (Fig. 5A). […] Our results emphasized the essential role of GPIHBP1’s acidic tail in protecting LPL against ANGPTL4-induced cleavage by PCSK3.
Fig. 5 GPIHBP1 reduces ANGPTL4-facillitated PSCK3 cleavage of LPL. 20 μM bLPL was incubated with 4 units of PSCK3 for 0–240 min at 25°C and the extent of LPL cleavage after Arg^324 was assessed by densitometric scanning of Coomassie–blue stained polyacrylamide after SDS-PAGE of reduced and alkylated samples. A: PSCK3 cleavage of LPL is accelerated by the presence of 2 μM ANGPTL4—present at sub-stoichiometric amounts compared to bLPL (20 μM). 25 μM intact GPIHBP1, but not GPIHBP1^34–131 mitigates PSCK3 cleavage of LPL. B: Both GPIHBP1^Cluster1-neutral and GPIHBP1^Cluster2-neutral rescue LPL from cleavage by PSCK3 in the absence of ANGPTL4 and both are more efficient than GPIHBP1^34–131. C: in the presence of 2 μM ANGPTL4, 25 μM GPIHBP1^Cluster1-neutral protects LPL from PSCK3 cleavage more efficiently than the GPIHBP1^Cluster2-neutral, which indicates a more prominent role of acidic cluster 2 in protecting LPL from ANGPTL4-catalyzed unfolding and subsequent PSCK3 cleavage. Shown are the mean values (±SEM) for intact LPL relative to that present at time 0 min for 3–5 independent time-course experiments. Some curves appear in multiple panels to increase clarity.

B1: ANGPTL4: Coiled-coil domain of ANGPTL4 (residues 1–159, N-terminal methionine, C-terminal 6× His-tag) produced in E. coli (protein, UniProt Q9BY76 26-406, looked up)
Angiopoietin-related protein 4: GPVQSKSPRFASWDEMNVLAHGLLQLGQGLREHAERTRSQLSALERRLSACGSACQGTEGSTDLPLAPESRVDPEVLHSLQTQLKAQNSRIQQLFHKVAQQQRHLEKQHLRIQHLQSQFGLLDHKHLDHEVAKPARRKRLPEMAQPVDPAHNVSRLHRLPRDCQELFQVGERQSGLFEIQPQGSPPFLVNCKMTSDGGWTVIQRRHDGSVDFNRPWEAYKAGFGDPHGEFWLGLEKVHSITGDRNSRLAVQLRDWDGNAELLQFSVHLGGEDTAYSLQLTAPVAGQLGATTVPPSGLSVPFSTWDQDHDLRRDKNCAKSLSGGWWFGTCSHSNLNGQYFRSIPQQRQKLKKGIFWKTWRGRYYPLQATTMLIQPMAAEAAS
half-life of intact bLPL: less than 5 min
